# Measured values reported in paper PMC3193538.
# [ ]: non-standard residue; d: D form.
# B1: G5-2RGD (generation 5 PAMAM dendrimer displaying 2 cyclic RGD peptides) (peptide)
# peptide: cyclo(RGD[dF]C)
# modifications: also: conjugated to G5 PAMAM dendrimer, 2 peptides per dendrimer
# B2: G5-3RGD (generation 5 PAMAM dendrimer displaying 3 cyclic RGD peptides) (peptide)
# peptide: cyclo(RGD[dF]C)
# modifications: also: conjugated to G5 PAMAM dendrimer, 3 peptides per dendrimer
# B3: G5-10RGD (generation 5 PAMAM dendrimer displaying 10 cyclic RGD peptides) (peptide)
# peptide: cyclo(RGD[dF]C)
# modifications: also: conjugated to G5 PAMAM dendrimer, 10 peptides per dendrimer
# B4: G5-7RGD (generation 5 PAMAM dendrimer displaying 7 cyclic RGD peptides) (peptide)
# peptide: cyclo(RGD[dF]C)
# modifications: also: conjugated to G5 PAMAM dendrimer, 7 peptides per dendrimer
# Target: human integrin protein αvβ3 (human) (UniProt P06756)
# Test: SPR
row,koff,Binder
1,0.00132 s⁻¹,B1
2,0.00136 s⁻¹,B2
3,0.00254 s⁻¹,B3
4,0.00155 s⁻¹,B4
